Reference: publication PMC6631030, “Unraveling Sugar Binding Modes to DC-SIGN by Employing Fluorinated Carbohydrates” (Molecules, 2019)

Target: the molecule itself
Test: negative-stain TEM; purified refolded DC-SIGN ECD, negative staining, Jeol JEM-1230

B1: dendritic cell-specific intercellular adhesion molecule 3-grabbing non-integrin (DC-SIGN) full extracellular domain, tetramer (domain or fragment, UniProt Q9NNX6 70-404, looked up)
chain: EQSRQDAIYQNLTQLKAAVGELSEKSKLQEIYQELTQLKAAVGELPEKSKLQEIYQELTRLKAAVGELPEKSKLQEIYQELTWLKAAVGELPEKSKMQEIYQELTRLKAAVGELPEKSKQQEIYQELTRLKAAVGELPEKSKQQEIYQELTRLKAAVGELPEKSKQQEIYQELTQLKAAVERLCHPCPWEWTFFQGNCYFMSNSQRNWHDSITACKEVGAQLVVIKSAEEQNFLQLQSSRSNRFTWMGLSDLNQEGTWQWVDGSPLLPSFKQYWNRGEPNNVGEEDCAEFSGNGWNDDKCNLAKFWICKKSAASCSRDEEQFLSPAPATPNPPPA
notes: DC-SIGN, full extracellular domain (ECD), residues 70-404; the fragment was inserted in pET15b via NdeI and BamHI, and the protein was purified on mannose-Sepharose, not by a tag; The results call it 'tetrameric full-length DC-SIGN', the methods give the ECD 70-404; also called DC-SIGN tetramer; tetrameric DC-SIGN
- stoichiometry N: 4
